Data from patent US20230039157A1.

B1: Factor VIIa (protein)
chain: ANAFLEELRPGSLERECKEEQCSFEEAREIFKDAERTKLFWISYSDGDQCASSPCQNGGSCKDQLQSYICFCLPAFEGRNCETHKDDQLICVNENGGCEQYCSDHTGTKRSCRCHEGYSLLADGVSCTPTVEYPCGKIPILEKRNASKPQGRIVGGKVCPKGECPWQVLLLVNGAQLCGGTLINTIWVVSAAHCFDKIKNWRNLIAVLGEHDLSEHDGDEQSRRVAQVIIPSTYVPGTTNHDIALLRLHQPVVLTDHVVPLCLPERTFSERTLAFVRFSLVSGWGQLLDRGATALELMVLNVPRLMTQDCLQQSRKVGDSPNITEYMFCAGYSDGSKDSCKGDSGGPHATHYRGTWYLTGIVSWGQGCATVGHFGVYTRVSQYIEWLQKLMRSEPRPGVLLRAPFP

Legend:
[1] = molecular target: IL-2Rβ and common γ chain on 32Dβ cells; assay: cell-based or functional assay
[2] = molecular target: IL-2Rα, IL-2Rβ and common γ chain on CTLL-2 cells; assay: cell-based or functional assay
[3] = molecular target: 21t15-7s multi-chain chimeric polypeptide
[4] = molecular target: 18t15-12s multi-chain chimeric polypeptide
[5] = molecular target: mouse (m)21t15 multi-chain chimeric polypeptide
TF219 = molecular target: T1, TF219
T1 chain: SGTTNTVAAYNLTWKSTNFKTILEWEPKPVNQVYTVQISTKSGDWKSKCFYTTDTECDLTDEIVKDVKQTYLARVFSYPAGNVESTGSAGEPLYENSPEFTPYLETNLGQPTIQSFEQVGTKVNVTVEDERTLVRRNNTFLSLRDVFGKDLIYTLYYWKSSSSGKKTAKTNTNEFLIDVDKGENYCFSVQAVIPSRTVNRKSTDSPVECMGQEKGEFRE

[6] = molecular target: 21t15-TGFRs multi-chain chimeric polypeptide

| Molecule | EC50 of 32Dβ cell proliferation (WST1, absorbance at 450 nM) [1] [nM] | EC50 of CTLL-2 cell proliferation (WST1, absorbance at 450 nM) [2] [nM] | FX activation measured by FXa activity (chromogenic substrate S-2765) [3] | FX activation measured by FXa activity (chromogenic substrate S-2765) [4] | FX activation measured by FXa activity (chromogenic substrate S-2765) [5] | FX activation measured by FXa activity (chromogenic substrate S-2765) (TF219) | FX activation measured by FXa activity (chromogenic substrate S-2765) [6] |
| --- | --- | --- | --- | --- | --- | --- | --- |
| recombinant IL-2 (from UniProt P60568 21-153) (ligand) | 0.14 | 0.548 |  |  |  |  |  |
| recombinant IL-15 (from UniProt P40933 49-162) (ligand) | 0.0016 |  |  |  |  |  |  |
| B1 |  |  | TF219 and TF219-containing multi-chain chimeric polypeptides had very low FX activation activity | TF219 and TF219-containing multi-chain chimeric polypeptides had very low FX activation activity | TF219 and TF219-containing multi-chain chimeric polypeptides had very low FX activation activity | TF219 and TF219-containing multi-chain chimeric polypeptides had very low FX activation activity | TF219 and TF219-containing multi-chain chimeric polypeptides had very low FX activation activity |
